Measured values taken from the supplement of paper PMC11316812.
± gives the standard deviation of the averaged measurements.

Legend:
[1] = test system: MCF7; assay: percentage of EdU-negative (G0-arrested) nuclei per well, 72 h; higher = more G0 arrest; conditions: reference: sequence is the full UniProt precursor, the tested protein was the secreted form or ectodomain
[2] = test system: hTERT-HMEC; assay: as above; conditions: reference: sequence is the full UniProt precursor, the tested protein was the secreted form or ectodomain
[3] = protein concentration 0.0225 µM
[4] = protein concentration 0.03125 µM
[5] = protein concentration 0.3125 µM
[6] = protein concentration 0.026505 µM
[7] = protein concentration 0.26505 µM
[8] = protein concentration 0.0357143 µM
[9] = protein concentration 0.357143 µM
[10] = protein concentration 0.01625 µM
[11] = protein concentration 0.1625 µM
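Note: secreted proteins added to cultured cells, EdU pulse at the end, nuclei found by Hoechst imaging, EdU status from nuclear versus surrounding ring intensity ratio, PBS as neutral control.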

For “MDYPTLLLALLHVYRALCEEVLWHTSVPFAENMSLECVYPSMGILTQVEWFKIGTQQDSIAIFSPTHGMVIRKPYAERVYFLNSTMASNNMTLFFRNASEDDVGYYSCSLYTYPQGTWQKVIQVVQSDSFEAAVPSNSHIVSEPGKNVTLTCQPQMTWPVQAVRWEKIQPRQIDLLTYCNLVHGRNFTSKFPRQIVSNCSHGRWSVIVIPDVTVSDSGLYRCYLQASAGENETFVMRLTVAEGKTDNQYTLFVAGGTVLLLLFVISITTIIVIFLNRRRRRERRDLFTESWDTQKAPNNYRSPISTSQPTNQSMDDTREDIYVNYPTFSRRPKTRV”, the “percentage of EdU-negative” value [1, 3] was 25.5 ± 2.7%, the “percentage of EdU-negative” value ([1]; protein concentration 0.225 µM) was 23.8 ± 1.8% and the “percentage of EdU-negative” value [2, 3] was 4.86 ± 0.72%. The “percentage of EdU-negative” value ([2]; protein concentration 0.225 µM) was 5.13 ± 0.67%.
For “MGRGWGFLFGLLGAVWLLSSGHGEEQPPETAAQRCFCQVSGYLDDCTCDVETIDRFNNYRLFPRLQKLLESDYFRYYKVNLKRPCPFWNDISQCGRRDCAVKPCQSDEVPDGIKSASYKYSEEANNLIEECEQAERLGAVDESLSEETQKAVLQWTKHDDSSDNFCEADDIQSPEAEYVDLLLNPERYTGYKGPDAWKIWNVIYEENCFKPQTIKRPLNPLASGQGTSEENTFYSWLEGLCVEKRAFYRLISGLHASINVHLSARYLLQETWLEKKWGHNITEFQQRFDGILTEGEGPRRLKNLYFLYLIELRALSKVLPFFERPDFQLFTGNKIQDEENKMLLLEILHEIKSFPLHFDENSFFAGDKKEAHKLKEDFRLHFRNISRIMDCVGCFKCRLWGKLQTQGLGTALKILFSEKLIANMPESGPSYEFHLTRQEIVSLFNAFGRISTSVKELENFRNLLQNIH [Q96HE7]”, the “percentage of EdU-negative” value [1, 4] was 26.32 ± 0.034%, the “percentage of EdU-negative” value [1, 5] was 25.7 ± 0.52% and the “percentage of EdU-negative” value [2, 4] was 6.24 ± 0.39%. The “percentage of EdU-negative” value [2, 5] was 6.47 ± 0.033%.
In the case of “MKSLVLLLCLAQLWGCHSAPHGPGLIYRQPNCDDPETEEAALVAIDYINQNLPWGYKHTLNQIDEVKVWPQQPSGELFEIEIDTLETTCHVLDPTPVARCSVRQLKEHAVEGDCDFQLLKLDGKFSVVYAKCDSSPDSAEDVRKVCQDCPLLAPLNDTRVVHAAKAALAAFNAQNNGSNFQLEEISRAQLVPLPPSTYVEFTVSGTDCVAKEATEAAKCNLLAEKQYGFCKATLSEKLGGAEVAVTCMVFQTQPVSSQPQPEGANEAVPTPVVDPDAPPSPPLGAPGLPPAGSPPDSHVLLAAPPGHQLHRAHYDLRHTFMGVVSLGSPSGEVSHPRKTRTVVQPSVGAAAGPVVPPCPGRIRHFKV”, the “percentage of EdU-negative” value [1, 6] is reported as 26.1 ± 1.4%, the “percentage of EdU-negative” value [1, 7] is reported as 26.2 ± 2.4% and the “percentage of EdU-negative” value [2, 6] is reported as 4.56 ± 0.2%. The “percentage of EdU-negative” value [2, 7] was 6.7 ± 0.16%.
With “MQAPGRGPLGLRLMMPGRRGALREPGGCGSCLGVALALLLLLLPACCPVRAQNDTEPIVLEGKCLVVCDSSPSADGAVTSSLGISVRSGSAKVAFSATRSTNHEPSEMSNRTMTIYFDQVLVNIGNHFDLASSIFVAPRKGIYSFSFHVVKVYNRQTIQVSLMQNGYPVISAFAGDQDVTREAASNGVLLLMEREDKVHLKLERGNLMGGWKYSTFSGFLVFPL [Q8IUK8]” the “percentage of EdU-negative” value [1, 3] was 26.91 ± 0.25%, the “percentage of EdU-negative” value ([1]; protein concentration 0.225 µM) was 26.76 ± 0.11% and the “percentage of EdU-negative” value [2, 3] was 4.67 ± 0.45%. The “percentage of EdU-negative” value ([2]; protein concentration 0.225 µM) was 5.29 ± 0.93%.
In the case of “MVPKLFTSQICLLLLLGLLAVEGSLHVKPPQFTWAQWFETQHINMTSQQCTNAMQVINNYQRRCKNQNTFLLTTFANVVNVCGNPNMTCPSNKTRKNCHHSGSQVPLIHCNLTTPSPQNISNCRYAQTPANMFYIVACDNRDQRRDPPQYPVVPVHLDRII”, the “percentage of EdU-negative” value [1, 8] is reported as 24.9 ± 1.8%, the “percentage of EdU-negative” value [1, 9] is reported as 27 ± 0.65% and the “percentage of EdU-negative” value [2, 8] is reported as 4.435 ± 0.01%. The “percentage of EdU-negative” value [2, 9] was 5.25 ± 0.32%.
For “MAGPLRAPLLLLAILAVALAVSPAAGSSPGKPPRLVGGPMDASVEEEGVRRALDFAVGEYNKASNDMYHSRALQVVRARKQIVAGVNYFLDVELGRTTCTKTQPNLDNCPFHDQPHLKRKAFCSFQIYAVPWQGTMTLSKSTCQDA”, the “percentage of EdU-negative” value [1, 4] was 26.2 ± 1.3%, the “percentage of EdU-negative” value [1, 5] was 26.6 ± 2.9% and the “percentage of EdU-negative” value [2, 4] was 5.05 ± 0.076%. For the same sequence, the “percentage of EdU-negative” value [2, 5] was 5.7 ± 0.21%.
In the case of “MKLALLLPWACCCLCGSALATGFLYPFSAAALQQHGYPEPGAGSPGSGYASRRHWCHHTVTRTVSCQVQNGSETVVQRVYQSCRWPGPCANLVSYRTLIRPTYRVSYRTVTVLEWRCCPGFTGSNCDEECMNCTRLSDMSERLTTLEAKVLLLEAAERPSSPDNDLPAPESTPPTWNEDFLPDAIPLAHPVPRQRRPTGPAGPPGQTGPPGPAGPPGSKGDRGQTGEKGPAGPPGLLGPPGPRGLPGEMGRPGPPGPPGPAGNPGPSPNSPQGALYSLQPPTDKDNGDSRLASAIVDTVLAGVPGPRGPPGPPGPPGPRGPPGPPGTPGSQGLAGERGTVGPSGEPGVKGEEGEKAATAEGEGVQQLREALKILAERVLILEHMIGIHDPLASPEGGSGQDAALRANLKMKRGGAQPDGVLAALLGPDPGQKSVDQASSRK [Q96A83]”, the “percentage of EdU-negative” value [1, 10] is reported as 26.9 ± 1.4%, the “percentage of EdU-negative” value [1, 11] is reported as 25.1 ± 1.8% and the “percentage of EdU-negative” value [2, 10] is reported as 4.63 ± 0.36%. The “percentage of EdU-negative” value [2, 11] was 7.44 ± 3.3%.
